The DeepSol protein solubility set

Experiment: soluble on expression in E. coli; label from the status in PepcDB or PDB records

Row | Sequence | soluble on expression in E. coli
1 | GSIPGLERALQQYTLEPSEKPFDLKSVPLATAPLAEQRTESTPVTAAKQPEKVAATRQEIFQEQLAAVPEFQGLGPLFKSSPEPVALTESETEYVIRCTKHTFTDHMVFQFDCTNTLNDQTLENVTVQMEPSEAYEVLCYVPARSLPYNQPGTCYTLVALPKEDPTAVACTFSCVMKFTVKDCDPTTGEADDEGYEDEYVLEDLEVTIADHIQKVMKLNFEAAWDEVGDEFQKEETFTLSTIKTLEEAVGNIVKFLGMHPCERSDKVPDNKNTHTLLLAGVFRGGHDILVRSRLLLLDTVTMQVTARSSEELPVDIVLASVG | soluble
2 | GSMADEALFLLLHNEMVSGVYKSAEQGEVENGRCITKLENMGFRVGQGLIERFTKDTARFKDELDIMKFICKDFWTTVFKKQIDNLRTNHQGIYVLQDNKFRLLTQMSAGKQYLEHASKYLAFTCGLIRGGLSNLGIKSIVTAEVSSMPACKFQVMIQKL | soluble
3 | GSMDALNSKEQQEFQKVVEQKQMKDFMRLYSNLVERCFTDCVNDFTTSKLTNKEQTCIMKCSEKFLKHSERVGQRFQEQNAALGQGLGR | soluble
4 | GSMDYKDDDDKKTNWLKRIYRVRPCVKCKVAPRDWKVKNKHLRIFNMCKTCFNNSIDIGDDTYHGHVDWLMYADSKEISNT | soluble
5 | GSMSFLGFGGGQPQLSSQQKIQAAEAELDLVTDMFNKLVNNCYKKCINTSYSEGELNKNESSCLDRCVAKYFETNVQVGENMQKMGQSFNAAGKF | soluble
6 | GSMVENSELRKAGLKVTLPRVKILQMLDSAEQRHMSAEDVYKALMEAGEDVGLATVYRVLTQFEAAGLVVRHNFDGGHAVFELADSGHHDHMVCVDTGEVIEFMDAEIEKRQKEIVRERGFELVDHNLVLYVRKKK | soluble
7 | GSPGISGGGGGILDSMVEKEEPKEEEKLGKLQYSLDYDFQNNQLLVGIIQAAELPALDMGGTSDPYVKVFLLPDKKKKFETKVHRKTLNPVFNEQFTFKVPYSELGGKTLVMAVYDFDRFSKHDIIGEFKVPMNTVDFGHVTEEWRDLQSAE | soluble
8 | GSSEDKITVHFINRDGETLTTKGKIGDSLLDVVVQNNLDIDGFGACEGTLACSTCHLIFEQHIFEKLEAITDEENDMLDLAYGLTDRSRLGCQICLTKAMDNMTVRVPDAVSDARESIDMGMNSSKIE | soluble
9 | GSSGSSGMKQATRKPTTPGDILLYEYLEPLDLKINELAELLHVHRNSVSALINNNRKLTTEMAFRLAKVFDTTVDFWLNLQAAVDLWEVENNMRTQEELGRIETVAEYLARREERAKKVA | soluble
10 | GSSGSSGNWIDVRYDLEKIESLIQSIHIDTTLYTDSDFHPSCKVTAMNCFLLELQVILHEYSNMTLNETVRNVLYLANSTLSSNKNVAESGCKECEELEEKTFTEFLQSFIRIVQMFINTS | soluble
11 | GSSNSHRGLAPTNVDFAFNLYQRLVALNPDKNTLISPVSISMALAMVSLGSAQTQSLQSLGFNLTETSEAEIHQSFQYLNYLLKQSDTGLEMNMGNAMFLLQKLKLKDSFLADVKQYYESEALAIDFEDWTKASQQINQHVKDKTQGKIEHVFSDLDSPASFILVNYIFLRGIWELPFSPENTREEDFYVNETSTVKVPMMVQSGSIGYFRDSVFPCQLIQMDYVGNGTAFFILPDQGQMDTVIAALSRDTIDRWGKLMTPRQVNLYIPKFSMSDTYDLKDVLEDLNIKDLLTNQSDFSGNTKDVPLTLTMVHKAMLQLDEGNVLPNSTNGAPLHLRSEPLDIKFNKPFILLLFDKFTWSSLMMSQVVNPA | soluble
12 | GSTAIGINDTYSEVKSDLAQQKAEMELSDLIRKGYHKALVKLKLKKNTVDDISESLRQGGGKLNFDELRQDLKGKGHTDAEIEAIFTKYDQDGDQELTEHEHQQMRDDLEKEREDLDLDHSSL | soluble
13 | GSTERPVAGPYITFTDAVNETTIMLKWMYIPASNNNTPIHGFYIYYRPTDSDNDSDYKKDMVEGDKYWHSISHLQPETSYDIKMQCFNEGGESEFSNVMICETKARKSSGQ | soluble
14 | GTDDEEKDNNGQGSVSVETNYLPIADPYVMFYNNKYYAYGTGGTTAGEGFACFSSDDLKNWKREGQALSATDSYGTWGFWAPEVYYVESKKKFYLFYSAEEHICVATSTTPEGPFRQEVKQPIWSEKSIDTSLFIDDDGTPYLYFVRFTDGNVIWVAQMTDDLMSIKTETLNQCIKAEVSWELLQGKVAEGPSLLKKNGVYYLIYSANHYENKGYGVGYATSDTPMGPWVKYSKNPLLQGDAATGLVGTGHGAPFQCKDGSWKYIFHAHWSAAEIQPRTSYIKDFAISDQGVVTISGTVIKPRVLK | soluble
15 | GVFTFEDEINSPVAPATLYKALVTDADNVIPKALDSFKSVENVEGNGGPGTIKKITFLEDGETKFVLHKIESIDEANLGYSYSVVGGAALPDTAEKITFDSKLVAGPNGGSAGKLTVKYETKGDAEPNQDELKTGKAKADALFKAIEAYLLAHPDYN | soluble
16 | HGPWPAAGAWELTILHTNDVHSRLEQTSEDSSKCVNASRCMGGVARLFTKVQQIRRAEPNVLLLDAGDQYQGTIWFTVYKGAEVAHFMNALRYDAMALGNHEFDNGVEGLIEPLLKEAKFPILSANIKAKGPLASQISGLYLPYKVLPVGDEVVGIVGYTSKETPFLSNPGTNLVFEDEITALQPEVDKLKTLNVNKIIALGHSGFEMDKLIAQKVRGVDVVVGGHSNTFLYTGNPPSKEVPAGKYPFIVTSDDGRKVPVVQAYAFGKYLGYLKIEFDERGNVISSHGNPILLNSSIPEDPSIKADINKWRIKLDNYSTQELGKTIVYLDGSSQSCRFRECNMGNLICDAMINNNLRHTDEMFWNHVSMCILNGGGIRSPIDERNNGTITWENLAAVLPFGGTFDLVQLKGSTLKKAFEHSVHRYGQSTGEFLQVGGIHVVYDLSRKPGDRVVKLDVLCTKCRVPSYDPLKMDEVYKVILPNFLANGGDGFQMIKDELLRHDSGDQDINVVSTYISKMKVIYPAVEGRIKFSTGSVRASSPSPL | soluble
17 | HHHHHHMAKKVNWYVSCSPRSPEKIQPELKVLANFEGSYWKGVKGYKAQEAFAKELAALPQFLGTTYKKEAAFSTRDRVAPMKTYGFVFVDEEGYLRITEAGKMLANNRRPKDVFLKQLVKWQYPSFQHKGKEYPEEEWSINPLVFVLSLLKKVGGLSKLDIAMFCLTATNNNQVDEIAEEIMQFRNEREKIKGQNKKLEFTENYFFKRFEKIYGNVGKIREGKSDSSHKSKIETKMRNARDVADATTRYFRYTGLFVARGNQLVLNPEKSDLIDEIISSSKVVKNYTRVEEFHEYYGNPSLPQFSFETKEQLLDLAHRIRDENTRLAEQLVEHFPNVKVEIQVLEDIYNSLNKKVDVETLKDVIYHAKELQLELKKKKLQADFNDPRQLEEVIDLLEVYHEKKNVIEEKIKARFIANKNTVFEWLTWNGFIILGNALEYKNNFVIDEELQPVTHAAGNQPDMEIIYEDFIVLGEVTTSKGATQFKMESEPVTRHYLNKKKELEKQGVEKELYCLFIAPEINKNTFEEFMKYNIVQNTRIIPLSLKQFNMLLMVQKKLIEKGRRLSSYDIKNLMVSLYRTTIECERKYTQIKAGLEETLNNWVVDKEVRF | soluble
18 | HIPEMGGQHYLGDSLDKDWRVTRDNQQFAFEYQDNEGQAQSKVLTLKVGDNLEEVATYINAQQSVVDASVTQDHQLQFFTSTLNAPEGITWKGNFADEMDIGSGELVTVDDLDMSTVGGAQLAIGVVDAAIKYVDSHRSEIGGFQNRVSGTIDNLNTINRSVSESKGRIRDTDFARESTVMVRSQVLQDATTALLAQAKQRPSSALGLLS | not soluble
19 | HMDPDELPLDEHCERLPYDASKWEFPRDRLNLGKPLGRGAFGQVIEADAFGIDKTATCRTVAVKMLKEGATHSEHRALMSELKILIHIGHHLNVVNLLGACTKPGGPLMVIVEFCKFGNLSTYLRSKRNEFVPYKTPEDLYKDFLTLEHLICYSFQVAKGMEFLASRKCIHRDLAARNILLSEKNVVKICDFGLARDIYKDPDYVRKGDARLPLKWMAPETIFDRVYTIQSDVWSFGVLLWEIFSLGASPYPGVKIDEEFCRRLKEGTRMRAPDYTTPEMYQTMLDCWHGEPSQRPTFSELVEHLGNLLQANAQQD | soluble
